Results as given in US20140120625.

Target: FLPe (thermostable FLP variant) (UniProt P03870)
Test: cell_activity

UniProt P03870, sequence (P03870 whole entry, change not shown): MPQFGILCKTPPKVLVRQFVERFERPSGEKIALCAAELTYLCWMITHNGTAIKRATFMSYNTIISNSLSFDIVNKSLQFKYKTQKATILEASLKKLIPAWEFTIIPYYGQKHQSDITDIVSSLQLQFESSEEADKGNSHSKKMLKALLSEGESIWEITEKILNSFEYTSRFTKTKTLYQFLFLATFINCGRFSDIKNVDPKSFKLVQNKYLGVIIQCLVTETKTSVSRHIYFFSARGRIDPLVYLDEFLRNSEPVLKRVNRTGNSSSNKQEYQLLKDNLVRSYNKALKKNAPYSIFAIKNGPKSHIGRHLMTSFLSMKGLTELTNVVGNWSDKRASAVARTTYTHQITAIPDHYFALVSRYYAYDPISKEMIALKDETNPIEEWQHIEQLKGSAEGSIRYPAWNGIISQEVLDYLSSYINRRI

Row | Sequence | binding signal (simultaneous four-locus gene swapping frequency in A. niger M1146, FRT-F/FRT-F3 pair) [fold vs FLP] | binding signal (same assay, paired with FRT-F) [fold vs FLP]
1 | TTGAAGTTCCTATTCCGAGTTCCTATTCTCTAGAAAGTATAGGAACTTC (double strand) [FRT-F] | 3 | –
2 | TTGAAGTTCCTATTCCGAGTTCCTATTCTTCAAATAGTATAGGAACTTCA (double strand) [FRT-F3] | – | 3
